# Source: patent publication US20090030181A1 (KOREA RESEARCH INSTITUTE OF BIOSCIENCE AND BIOTECHNOLOGY, published 2009)
# Where no end group is shown, it is not given here.
# Molecular target: T1, human mdm2 N-terminal domain, mdm2(3-109) (human, UniProt Q00987 3-109)
# T1 construct: Expressed in E. coli BL21(DE3) from a pLM1 vector; Uniformly 15N-labelled (or 15N,13C-labelled) where it is the observed species in NMR; unlabelled when used as titrant and when immobilised on the CM5 chip
# Assay: SPR (BIAcore 2000), mdm2(3-109) amine-coupled on CM5, peptide injected at 1.5625-50 µM, equilibrium fit
# T1 sequence (Q00987 3-109 limits assumed): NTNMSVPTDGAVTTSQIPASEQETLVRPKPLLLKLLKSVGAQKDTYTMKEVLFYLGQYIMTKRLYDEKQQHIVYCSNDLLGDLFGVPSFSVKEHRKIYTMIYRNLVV
binder,measurement,value
"DIEQWF-NH2 (Synthetic, solid phase; also called p53 (49-54); p53(49-54) peptide) [native p53 TAD(49-54) peptide]",Kd,25 µM
